Reference: the DeepSol protein solubility set

Assay: soluble on expression in E. coli; label from the status in PepcDB or PDB records

Row | Sequence | soluble on expression in E. coli
1 | MHSVPSTGFPQSEFSGPFWTGRGVACARPNRYVWTARPSDQSSRRMSTSFSRRLRRLQSQKETALCVGLDPVPARFPPSLQDGRLRTDAVRAFCTTIVEATAPYACAFKPNFAFFEALGPAGLTVLDQVVTTIPDDCLVLGDAKRGDIGHSARHYAASIYEELGLDACTVSPYLGRDSVMPFLEHEGTCTFVLARTSNDGAADLQEACTCDGTPLYRHVARRVQAWNADAPGGAGLVVGATAPAALQDLRSLCPSLPFLVPGVGAQGGDAAAVMDAAATDEGPVLVNSSRSILYASEGPNYANAAADAARALRDALNGGASSSRGAPSPPALEHHHHHH | soluble
2 | MRISAKGRYALAAVISMAQQYNNGEYITVISISEKLGISKIFLEQVFSSLKKAKIVSSTKGVQGGYQLTRTPSQITVLDVLLSVEVSLFEQTQETVSDKAPDIEQALRSSVFDVLDKNIKQTLSTITIADLVAEAEKHKDYNALMFYI | soluble
3 | MYTHLTDMTNMLDTAKIGTSDGTFPLANAQNLQKAVEELQTGISKGMAGYFVLQYEIDNYCIAAEKAIAEFQDSYQQTLQPGTPAELKVFGIDGKGRIEFGSDPAYGGGNTFTVESWVKYDAGFFESGIGSFLSTFDGKQPNEGWMINFLGSNLRTTIGMGPQEGRVLEEGRAYPDNFGKWNHVVTVWDNTLPEGQLKMYVNGELFFSKTNDVKNDAGVLQNYMPNTRNQNMWAFQEPTDNSRCMTGFIKKFRMWSTAKSANEVKTLMNSDVTGTESGLVCAWDFTTVVEDVTNIPDKTGKHVAKIVGNYKWFKVEN | not soluble
4 | MSLIVLKFGGSSIKYDFEEATNLALSLFEDDAVIVVVSAIKGITDKLILYSQTLDKTIATKIASEYVSFAKSHGIDPVILKPYLDELFNLPDLPEEALRDYILSLGEVLSAVIFSASIGGKFVPSWDIFEAEGNFGNAFIDIKSSKKKFKRVFEVLEEGYIPVIPGFTAGKDGYILTLGRGGSDYSGVAAGVLGKAKLVAIMSDVEGIYTADPKLVPSARLIPYVSYDEIIISSKHGMRALQWKAAELAKEYKIPVLFGRTRNWRMGTLMSERSSGMPLMTYKDGLLLVNVTEEIKYPIIAEGPFWKLYKVSQEEGIHLMRELHTKLFQPSFIQYSVYKSSENGQKTQEFNEKISIEQGENRKIYYSEEEVNLPGEGHHHHHH | soluble
5 | MRTMIYKILTGCYIVAALVLVAACNDGLDIQTKYPFTVETMPVPKELKVNETAEIRCELKREGRWEDTRYTIRWFLFDGEGTLKLDDGTVLLPNDRYPLEKETFRLYYTPLSDEQSGFTVWVEDSDGQAVELEFDFNADNDKEDGYGTELEHHHHHH | soluble
6 | MGSDKIHHHHHHMFPAGEMFFIESIRNVRNQIKDEKLLEDIKAFIAQEAFHSREHKMLNNHLIHSNYPEVVEIEAQTKARLDKLRQLSAVEQVAATVVMEHYTATLARLLLTDSLIKAKTTQESRNLWEWHALEELEHKSVAFDVLNAIGGNSSKNRKVALARVAKLITPIIFKYWIKILKRKDINFTLKQLKDGIYLGFGGINRVGILSKAFVDMLDVRAENFDPLNMQTEQLEAEFREKLFGQAGFLRDYLS | not soluble
7 | MACLCLANISWATVCANSTGVAEDEHYDLSNVFNSTNNQPGQIVVLPEKSGWVGVSAICPPGTLVNYTYRSYVTNFIVQETIDNYKYMQLNDYLLGAMSLVDSVMDIQFPPQNYIRMGTDPNVSQNLPFGVMDSRLIFRLKVIRPFINMVEIPRQVMFTVYVTSTPYDPLVTPVYTISFGGRVEVPQNCELNAGQIVEFDFGDIGASLFSAAGPGNRPAGVMPQTKSIAVKCTNVAAQAYLTMRLEASAVSGQAMVSDNQDLGFIVADQNDTPITPNDLNSVIPFRLDAAAAANVTLRAWPISITGQKPTEGPFSALGYLRVDYQ | not soluble
8 | MAQEIELKFIVNHSAVEALRDHLNTLGGEHHDPVQLLNIYYETPDNWLRGHDMGLRIRGENGRYEMTMKVAGRVTGGLHQRPEYNVALSEPTLDLAQLPTEVWPNGELPADLASRVQPLFSTDFYREKWLVAVDGSQIEIALDQGEVKAGEFAEPICELELELLSGDTRAVLKLANQLVSQTGLRQGSLSKAARGYHLAQGNPAREIKPTTILHVAAKADVEQGLEAALELALAQWQYHEELWVRGNDAAKEQVLAAISLVRHTLMLFGGIVPRKASTHLRDLLTQCEATIASAVSAVTAVYSTETAMAKLALTEWLVSKAWQPFLDAKAQGKISDSFKRFADIHLSRHAAELKSVFCQPLGDRYRDQLPRLTRDIDSILLLAGYYDPVVAQAWLENWQGLHHAIATGQRIEIEHFRNEANNQEPFWLHSGKR | soluble
9 | GMKQSKKIIITCAVTGSIHTPTMSPYLPITPEEIVKEGVAAAEAGAAMLHLHARDPLNGRPSQDPDLFMRFLPQLKERTDAILNITTGGGLGMSLDERLAPARAARPEVASMNMGSLNFNISQAAAKFDTFKFDWERPYLAGTRDFILSNTFSQIERGMTELGASGTRFEFECYDVGHLYNLAHFVDRKLVEPPFFLQCVFGILGGIGADPENLLHMRTIADRLFGQDYYLSVLAAGRHQMPFVTMSAILGGNVRVGLEDSLYSGKGQLATSNAEQVRKIRRIIEELSLDIATPDEARAMLKTKGANETSF | soluble
10 | MAHHHHHHMSESPMCLFIACSTRDNTSREYIYTILKNRLLGSHVCIDTNILDVPTNLKFCSFDDLLKCADDLQKYDSYAYGCLKKIEKLAKEYDENIELKIIYQRQHINIDQYIRRFTWDDAKYPRNRSLTDTIDVMVNNITKLSDEIHIKSSMLNDLKEKKKKDIPKTDTNNFFLKNLNEILTPQTVSQADFMETEYLTTLIAYIPKNSVDEWLASYEKFSQYVVPRSTEQFKGLVDKDGNTLWKVYVFKKFAESFKEAAKLKKFVVKSFKYDEQKYNDVMESRTKVEAEIIRQETFLRRMCLAAFSDIFSAFIHINILRVFCESVLRFGVPPNFASFSIRINGESKEKKVRKKLYDIFSSTDSIGKNYIKRSDENDEEIYPYVSVSFKI | not soluble
11 | MPTLKYLPHYPPALVQQAQALFDSGELGALLRSKYPDGHDVQTDKALYQFVSALKQRHLKNAPLPAKVLYDNQQHPLKGTLGTNTTISRVQGGRLKSKSEIRIASLFRELPLPFLQMIVVHELAHLKVRDHDKAFYQLCCHMQPDYHQLEFDLRLWLNWREQRRNLEHHHHHH | soluble
12 | NKDFQWDFSLNWSKSVKKLTEIYGGQKKFGDLKVGDRADAFYGSQWQKSADGELILDENGMPTKDAYKQYLGHLDPNFRMGMQNTFRYKDFTLSVDLDGAYKGVIYSVLSEKLWWGGKHPESVEYRDAQYAVGHPIYVPNGVVVTGGELKRDIDGNVISDTRTYKRNTTAVDWQQWCQNYPYQAYVSSKENAKFANVFDRSYIKLRRVALTYNFTKLLSKQSPVKGLTATVFGNNLAVWKKVPFVDPDYTGDSNDGGANDPTARYIGMGVNIKF | not soluble
13 | EVLPNFAENARPIEGKKPYTVLQLAGRAVYIKDSCNACHSQLIRPFKSETDRYGMYSVSGEFAYDRPFLWGSKRTGPDLARVGNYRTADWHENHMWDPTSVVPDSIMPSYKHMFKNNADIETAYAEALTVKKVFNVPYDAENGTKLGSWEDAQAEVKAEAQAIVDQMKNQEVKDAFAKGEIKEIVALIAYLNSLK | not soluble
14 | TLEPTQSVQNYMIQADSTEGSLQNDWLIMATKAAIQANQLDQADLLIKRLARQQLTEVQQAEWQLARATIQQKQGDYSQLLQLLNFKPWWKLPNEQWKDYYSLRADAYQSLNQPFEANRQLVAFSQYASSAEQREISSRIWMNFGSYSEYELTSLQTEPSEDVLDGWLQLAVYAKTLSGNLSQLKNTLERWLNENPSHPAAIYTPEEIQNILSLDIVKPNNTALLLPLTGKFAPQAQLIRDGFVFAMMNDRNRDPSATLTVIDTNAYSADEVKQRLINENIDFVVGPLQKENVELLQTTMDGSANSPAIPALALNIPEDVQPGTDICYLALSPEQEVAQAAKYLFSEGYSFPLILAPKGSYGERVVQAFNEEWSKYSSNKVATSYFGDKRQLQKDINDVFGLQESKQRIAQMQSLMRIKLETQPRSRRDVDAVYIVARSSELTLIKPFIEVAINPDAKPPKLFSNSRSNSGGATYEDLTGIIYSDIPLLVNPDPIVTAEMNELWADQSNMEKRLKALGMDAYKLIGELPQMKVVPGYSVSGQTGTLSIDNNCVVQRELSWAERGAL | not soluble
15 | MGAGMLGNINDIDLRMLRTFCAIVEAGGFTAAQARLNTSLSRLSVLVRDLEVRLGYSLCRRGNGGFQLTEEGQELYDAALGLFSDIARFREQVRGLGGRDREALHLGCVDGVIGQHCLPLPLAIRLFRQRAPEVLLKLHTRRPDELEHAVLEERLQLAVGAFHHRLSGLYYQPLFREEQNLYCGSAHPFFARADDEPTLGEICAADYVGRGYMAENHRPHDLRFNQGTDAYTMEAIATLVFSGTYIGYLPTHYAATWVAEGRMRAIRPRQLAYDSEFHCITRQGHEERPTLTLFLRSLFEAQKQLGVQVPANTNGIARQL | not soluble
16 | MPNDLKKELRELKETLEYLKKSFEVISQLAQAYIRLLNVYAEYGDLGIDVVIPEIKHDPIARDIVKILFDLRRANVSQIARELKGRRGKASRNTVRKKLKELEKLGVVKEVPGERGSVYTLSREVVKKWLDLIGIPINLLLEHHHHHH | soluble
17 | MISICLVNTYDKLKKHEIHLRSIARAAPLCYAFNFHLALLDFPFWRSEKEVAEEVANYTTIGEGGKYLLYLAESGKLHLIDKIPAHFGEVVATTSKPDPDKVVNPDTLAAFKSATFLIGLGRRGLPREMLKSAKYHLDVTRKGVSLETCSAIGAIAMLLAVKVVG | not soluble
18 | MCKHCGAAVLFVKDDRWHVFDAKPSEEGEWRIRSRWAANVAAEKTTVTRLTESKLRRARLMGEPLFRPHFQTCPANPRAKILQEKRRHG | not soluble
19 | MGSDKIHHHHHHMKLAVISSIYKNDSLSKIKQSLQSLLNQENVTCDIYLYCDGPVSIDIVHFLDSFDQNSLYIFKQEQNRGLAHALNELLNIVLTKEYEYIARMDADDISMPERFVKQIAFMNSHPDIDCLGTWAIEIDDDGKEYFRKKMPITHEECLELFKKRDCMIHPTVMFRRSYFEKAGLYPEDTYFGEDTMMWAKGFKSGCKFANVPEYLFKFRLDSNFFERRRGWKHAKSIYTLRHRVNRMLGFGWKEDCYALLYAMAKLMPKSILDIIYKTVR | not soluble
20 | GPGSMLDRLSCLGPRTKRWLHNNLRGRYVRVCTREQHSRKQLTPAGGPQGSALRPQLFLHCVDDLLRRMDNIYSASALMYADDLTVVASGAGTHACAAAMPPALSLITAWAAEHNHKINVDKSEAALFHISSHTRSDDEMVNLHLGNGKLRIQSRPVRLLDTTMDQLLNFDYARFHRFK | not soluble
21 | MGSDKIHHHHHHMYNVGGVVLKRYFVAPGRINVIGEHTDYNEGFVLPVAIDKYVLLSVEKTSGSKISLSSMGREPVSFDESKIQKTGDWSDYLKGVLWVLKDELGTEFGGMSIEINSNLPEGAGLSSSAAVEVAMIVALNSSFNLKLDETELYDYARKAENEFVGVKCGVMDQFAAVMGKKDKAIFLDTLEMRYEYVPLELGDYTFLVFDSKVHHSLSKGGYNTRREEARKALEILGKSSYRDVSMVDLFPNRSRLGELYYRRALHVVSENMRVLESVKIMSNSNFENLGRLLIQSHESLALDYEVSCDETDFIVNTLREMKGVSGARMIGAGFGGSVLSLCEKEEEKKIVEVIKTRYKERFGIDLDSYEVRTSDGAREVDSSFSL | not soluble
22 | VVFVTVGTTSFDALVKAVVSQNVKDELQKRGFTHLLIQMGRGIFFPTKCDGADGSLVVDYFTFSSSIADYIRSASLVISHAGSGSIFETLKLGKPLIVVVNEDLMDNHQCELAEALEERKHLYYTRPHSLHQTLTKMELGSLVQYTPGDGTPVARIIDRFLGFPDD | not soluble
